Entries after “also recorded” stand apart in the source; their conditions may differ. No end group written: not given here.
Key:
DAPK1 [1] = target: T1, DAPK1 (Rattus norvegicus, UniProt F1LNN8); assay: Knockdown of native DAPK1 in cultured cortical neurons, NMDA stimulation (immunoblot); format: cell-based; conditions: for reduction of activated DAPK1 on application alone: NR2B-CTS or Pep-1 alone; for levels of endogenous DAPK1 reduced by: with Pep-1 (1:4); for levels of endogenous DAPK1 reduced by / effect on DAPK1 in cytosolic fraction / effect on DAPK1 in mitochondrial fraction / effect on DAPK1 in nuclear fraction: 2 hours after washout; for effect on DAPK1 in cytosolic fraction / effect on DAPK1 in mitochondrial fraction / effect on DAPK1 in nuclear fraction: 1 hr prior to and during NMDA
T1 construct: decreased the level of endogenous DAPK1 in cultured cortical neurons following NMDA treatment; endogenous in cells; host or cells: primary rat cortical neurons (E18, 14-18 DIV)
Description: (§1) Cell culture, transfection and treatments. HEK293 cells and COS7 cells were cultured in DMEM (Sigma, D6429-24X500ML) supplemented with 10% Fetal Bovine Serum (Invitrogen, 12483020). Cells were grown to 80% confluence in 6-well plates before transiently transfected with Lipofectamine 2000 (Invitrogen, 11668019), as according to the manufacturer's protocols. Cells were transfected for either 24 or 48 hours at 37° C. before harvesting for biochemical analyses. For experiments involving TAT or His-TAT peptides, unless otherwise specified, peptides were added 1 hour prior to NMDA insult.
(§2) Primary culture of cortical neurons. Dissociated cultures of rat cortical neurons were prepared from Sprague Dawley rat embryos collected from euthanized mothers 18 days after fertilization as previously described^35. Briefly, hippocampi and cerebral cortices were extracted from embryos and incubated for 30 min in 0.25% trypsin-EDTA. Digested tissues were dissociated by trituration and plated on poly-D-lysine-coated (Sigma, P7280) plates. Plating medium consisted of Neurobasal Media (Invitrogen, 21103-049) supplemented with B27 (Invitrogen, 17504044), glutamic acid (Sigma, G8415) and GlutaMax (Invitrogen, 35050-061). After 2 days, 2/3 of the media was replaced with fresh Neurobasal feeding media consisting of Neurobasal Media, B27 and GlutaMax. Cultures were maintained at 37° C. in a humidified 5% CO2 atmosphere. Mature neurons (14-18 days in vitro (DIV)) were used for experiments.
(§3) Immunoblotting. Immunoblotting assays were carried out as previously described^36. Briefly, proteins were extracted from neurons using a lysis buffer composed of 150 mM NaCl, 50 mM Tris, pH 7.4, 0.1% SDS, 1% NP-40, 0.5% sodium deoxycholate, 1 mM EDTA, 1 mM Na3VO4, and proteinase inhibitor mixture (Thermo Fisher, PI78442). Samples were separated on 10% SDS-PAGE gels, transferred to polyvinylidene difluoride (PVDF) membrane, and immunoblotted with respective antibodies. Blots were enhanced with chemiluminescence detection reagent kit (Fisher, 32106) and visualized with Bio-Rad imager and Quantity One software. Signal intensities from each band was quantified with Bio-Rad Image Lab software, and the bands were analyzed relative to their controls from the same membrane and experiment.
Cellular fractionation. Cytoplasm/nuclei fractionation was performed on cultured cortical neurons (6.0*10^6 cells/100 mm dish). Briefly, cells were washed with ice cold PBS and rocked in lysis buffer for 30 min. Cells were then collected and centrifuged to obtain a rough cytoplasmic and nuclear fraction. Supernatant was collected and further centrifuged to obtain purified cytosolic fraction. The original pellet was washed and vortexed to obtain a nuclear lysis. Mitochondrial fractionation was performed as described in the Pierce Mitochondria Isolation Kit for Cultured Cells (Thermo Scientific, 89874) user guide. Purity was assessed by immunoblotting for the presence of LB1 (nucleus only), HSP90 (cytosol only) and VDAC1 (mitochondria only).

α-synuclein [2] = target: T2, α-synuclein (Homo sapiens, UniProt P37840); assay: Knockdown of co-expressed α-synuclein in HEK cells (immunoblot); format: cell-based; conditions: for effect on α-synuclein levels: co-expression at various ratios, 48 hours
T2 construct: expressed in transfected cells; host or cells: HEK293
Description: Plasmid construction. CTS-GFP was constructed by introducing a BamHI fragment containing the CTS coding sequence into the pEGFP-N2 vector (Clontech #6081-1). The CTS coding sequence was prepared by annealing custom design oligonucleotides (Integrated DNA Technologies). mCTS-GFP was constructed by performing single point mutations to CTS-GFP plasmid. FLAG-βsyn36 was constructed by annealing oligonucleotides and inserting into pcDNA3.0 using HindIII and NotI restriction sites (HindIII, Fermentas, FD0504; NotI Fermentas, FD0594). FLAG-βsyn36-CTS was constructed by PCR using FLAG-βsyn36 as template and adding CTS coding sequence to the reverse primer. FLAG-cDAPK1 was constructed by deleting the autoinhibitory domain from WT-DAPK1 (789-936 bp). NR2Bct (1242-1342aa) was prepared by PCR using NR2B expression vector. NR2Bct-CTS fragment was obtained by inserting NR2Bct fragment into CTS-GFP using EcoRI and BglII restriction sites (EcoRI, Fermentas, FD0274; BglII, Fermentas, FD0084), then PCR, introducing NcoI and EcoRI to the fragment (NcoI, Fermentas, FD0574). His-TAT-NR2Bct-CTS was constructed by cloning NR2Bct-CTS into the pTAT/pTAT-HA plasmids (generous gift of S. Dowdy, Washington University, St. Louis, MO^31) using NcoI and EcoRI restriction sites. His-TAT-NR2Bct was constructed by mutating the first amino acid in CTS sequence into a stop codon. HA-NR2Bct-CTS was constructed by PCR using His-TAT-NR2Bct-CTS as template, with BamHI site in both forward and reverse primers, and then inserted into pcDNA3.0 with BamHI (Fermentas, FERFD0054). HA-NR2Bct-CTSm was constructed by point mutations.
as §1, §3

α-synuclein [3] = target: T3, α-synuclein (Rattus norvegicus, UniProt P37377); assay: Degradation of endogenous α-synuclein in cultured neurons (immunoblot); format: cell-based; conditions: for effect on endogenous α-synuclein level: 25 μM bath applied, 4 hours
T3 construct: endogenous in cells; host or cells: primary rat neurons
Description: as §2, §3

PSD95 = target: T4, PSD95 (Rattus norvegicus, UniProt P31016); assay: Degradation of endogenous PSD95 in cultured neurons (immunoblot); format: cell-based; conditions: for effect on endogenous PSD95 level: 25 μM bath applied
T4 construct: endogenous in cells; host or cells: primary rat neurons
Description: as §2, §3

DAPK1 [4] = target: T1, DAPK1; assay: DAPK1 knockdown in brain, rat MCAO focal ischemia model (immunoblot, immunohistochemistry); format: in vivo; conditions: 10 mg/kg i.v.
Description: as §3
Middle cerebral arterial occlusion (MCAO). All animal experiments were performed according to protocols approved by the University of British Columbia Committee on Animal Care. Adult naïve male Sprague-Dawley rats (300-350 g, Charles River) were group housed (3-4 animals/cage) in 12 hr:12 hr light-dark cycles and had free access to rat pellet chow and water prior to surgery. Reversible MCAO with suture-insertion method was performed as described previously^37. Briefly, a nylon suture with a blunted tip was entered through the right external carotid artery of anesthetized rats and advanced to the right internal carotid artery until the right MCA was occluded. After 60 min of occlusion, the rat was reanesthetized to facilitate the removal of the occlusion. Body temperature was maintained at between 36.5 and 37.5° C. throughout the surgical procedure with a heating pad. Peptides (10 mg/kg) or vehicle control (saline; 1 ml/kg) was injected via the jugular vein. Rats were then sewn up and allowed to recover until tissue collection.
Immunohistochemistry. Rats were anesthetized and perfused with double-filtered saline and 4% paraformaldehyde (PFA) in PBS. Brains were collected, immersed in 4% PFA before subjected to cryoprotection by 30% sucrose/PBS. After the brains had sunk, they were flash frozen with dry ice before overnight freezing in −80° C. They were then sliced at […] with a cryostat, and stored in 0.1 μM PB (sodium phosphate dibasic and sodium phosphate monobasic). Prior to staining, slices were washed 3×10 min with 0.1 μM PB, permeablized and blocked in 0.1 μM PB with 1% BSA and 0.2% Triton X-100 for 30 min, and stained with anti-DAPK1 (1:100) at 4° C. for 3 days. They were then washed and stained with Alexa 488 (1:1000) at 4° C. overnight before washing and mounting.

T1 sequence (F1LNN8 1-1430): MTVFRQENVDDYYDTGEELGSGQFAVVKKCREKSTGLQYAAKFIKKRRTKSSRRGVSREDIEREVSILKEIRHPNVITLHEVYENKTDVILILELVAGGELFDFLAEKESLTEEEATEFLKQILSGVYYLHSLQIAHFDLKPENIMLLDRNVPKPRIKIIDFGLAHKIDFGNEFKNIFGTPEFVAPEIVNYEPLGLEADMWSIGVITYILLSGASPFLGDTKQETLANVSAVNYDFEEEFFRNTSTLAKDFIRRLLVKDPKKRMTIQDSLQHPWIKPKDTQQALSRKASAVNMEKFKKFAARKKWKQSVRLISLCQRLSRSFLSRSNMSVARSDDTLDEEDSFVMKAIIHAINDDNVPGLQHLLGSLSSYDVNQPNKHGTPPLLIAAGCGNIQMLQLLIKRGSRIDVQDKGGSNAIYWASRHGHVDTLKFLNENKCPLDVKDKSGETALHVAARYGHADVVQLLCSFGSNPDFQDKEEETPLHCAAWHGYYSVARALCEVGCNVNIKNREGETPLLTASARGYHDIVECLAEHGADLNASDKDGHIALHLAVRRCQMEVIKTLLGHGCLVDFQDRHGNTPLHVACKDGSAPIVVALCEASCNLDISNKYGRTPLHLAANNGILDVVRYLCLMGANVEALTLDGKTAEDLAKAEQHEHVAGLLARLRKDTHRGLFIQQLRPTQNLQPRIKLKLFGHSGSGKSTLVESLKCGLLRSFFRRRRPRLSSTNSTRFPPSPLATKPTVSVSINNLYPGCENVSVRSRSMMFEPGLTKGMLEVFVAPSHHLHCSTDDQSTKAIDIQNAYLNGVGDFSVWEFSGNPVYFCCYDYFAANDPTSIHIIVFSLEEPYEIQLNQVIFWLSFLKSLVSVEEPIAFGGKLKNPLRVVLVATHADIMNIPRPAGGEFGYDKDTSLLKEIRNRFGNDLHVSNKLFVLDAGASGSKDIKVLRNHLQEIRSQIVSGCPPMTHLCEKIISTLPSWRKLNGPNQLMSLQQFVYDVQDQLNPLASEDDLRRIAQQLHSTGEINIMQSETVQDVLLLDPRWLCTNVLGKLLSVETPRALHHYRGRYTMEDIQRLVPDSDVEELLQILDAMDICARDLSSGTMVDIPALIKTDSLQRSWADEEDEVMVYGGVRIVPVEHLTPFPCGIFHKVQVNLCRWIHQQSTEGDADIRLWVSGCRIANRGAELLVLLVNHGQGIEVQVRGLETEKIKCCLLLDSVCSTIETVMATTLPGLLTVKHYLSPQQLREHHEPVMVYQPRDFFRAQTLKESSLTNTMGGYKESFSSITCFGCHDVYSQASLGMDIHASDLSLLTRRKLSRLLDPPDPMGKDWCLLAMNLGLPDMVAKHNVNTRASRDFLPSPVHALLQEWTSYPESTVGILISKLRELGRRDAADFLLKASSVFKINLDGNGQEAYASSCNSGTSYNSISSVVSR
T4 sequence (P31016 whole entry): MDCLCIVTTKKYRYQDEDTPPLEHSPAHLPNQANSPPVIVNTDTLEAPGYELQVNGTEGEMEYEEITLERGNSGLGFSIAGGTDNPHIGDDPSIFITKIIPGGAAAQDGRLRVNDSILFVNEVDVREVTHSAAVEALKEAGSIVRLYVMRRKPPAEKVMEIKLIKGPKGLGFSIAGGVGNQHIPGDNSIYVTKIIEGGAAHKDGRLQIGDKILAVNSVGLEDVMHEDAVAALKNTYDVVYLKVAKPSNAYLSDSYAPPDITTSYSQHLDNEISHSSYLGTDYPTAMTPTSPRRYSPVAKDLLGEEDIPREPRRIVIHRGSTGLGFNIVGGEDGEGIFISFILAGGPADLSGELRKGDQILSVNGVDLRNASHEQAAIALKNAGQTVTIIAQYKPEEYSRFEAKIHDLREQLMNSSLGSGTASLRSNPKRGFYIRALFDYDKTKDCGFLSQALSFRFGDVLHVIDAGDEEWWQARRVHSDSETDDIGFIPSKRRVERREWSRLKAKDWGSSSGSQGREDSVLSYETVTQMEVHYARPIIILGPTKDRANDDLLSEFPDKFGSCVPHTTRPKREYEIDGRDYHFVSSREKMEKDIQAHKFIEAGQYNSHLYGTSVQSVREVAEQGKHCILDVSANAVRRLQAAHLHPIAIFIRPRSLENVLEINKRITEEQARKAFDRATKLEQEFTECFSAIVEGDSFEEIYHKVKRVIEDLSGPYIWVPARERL

Substance: KETWWETWWTEWSQPKKKRKV [Pep-1, short amphipathic intracellular delivering carrier peptide, reference compound]
- reduction of activated DAPK1 on application alone (DAPK1 [1]; NMDA): not produced

Substance: FLAG-βsyn36-CTS: expressed FLAG-tagged peptide of β-synuclein 36-45 and CTS (untagged: SEQ ID NO:1 GVLYVGSKTRKFERQKILDQRFFE) ({FLAG}-GVLYVGSKTRKFERQKILDQRFFE)
- effect of lysosome inhibitor on peptide-induced α-synuclein reduction (α-synuclein [2]; +NH4Cl 20 mM): completely rescued; also recorded: prevented
- effect on α-synuclein levels (α-synuclein [2]): significantly decreased α-synuclein levels in a dose-dependent manner
- effect on α-synuclein levels (α-synuclein [2]; listed as βsyn36-CTS): constitutively reduced α-synuclein in a dose-dependent manner
- α-synuclein reduced by, of control α-synuclein levels (α-synuclein [2]; co-expression ratio 2:1, 48 hours): 42.89%±11.34%
- α-synuclein reduced by, of control α-synuclein levels (α-synuclein [2]; co-expression ratio 4:1, 48 hours): 46.49%±5.72%
- α-synuclein reduced by, of control α-synuclein levels (α-synuclein [2]; co-expression ratio 8:1, 48 hours): 52.18%±6.61%
- α-synuclein reduced by, of control α-synuclein levels (α-synuclein [2]; co-expression ratio peptide:α-synuclein 1:1, 48 hours): 32.40%±7.14%

Substance: KKNRNKLRRQHSYKFERQKILDQRFFE (Knockdown peptide targeting DAPK1, without TAT protein transduction domain) [NR2B-CTS, synthetic DAPK1 degradation targeting peptide without TAT, delivered with Pep-1]
- levels of endogenous DAPK1 reduced by (DAPK1 [1]; 10 μM, NMDA): 33.60±14.48%
- levels of endogenous DAPK1 reduced by (DAPK1 [1]; 25 μM, NMDA): 43.65±2.05%
- levels of endogenous DAPK1 reduced by (DAPK1 [1]; 50 μM, NMDA): 63.88±6.18%
- reduction of activated DAPK1 on application alone (DAPK1 [1]; NMDA): not produced
- effect on DAPK1 levels in non-NMDA treated neurons (DAPK1 [1]; delivered by Pep-1, no NMDA): did not affect DAPK1 levels
- DAPK1 decrease (DAPK1 [1]; with Pep-1, 1 hour following NMDA and peptide washout): 58.27±5.48%
- DAPK1 decrease (maximum level) (DAPK1 [1]; with Pep-1, 2 hours after washout): 78.79±1.15%
- effect of NH4Cl on DAPK1 reduction (DAPK1 [1]; with Pep-1, NMDA, +NH4Cl 20 mM): fully rescued

Substance: YGRKKRRQRRRKLSSIESDVKFERQKILDQRFFE (targeted knockdown peptide targeting PSD95, with TAT PTD) [TAT-NR2B9c-CTM, PSD-95 targeting peptide]
- effect on endogenous α-synuclein level (α-synuclein [3]): without perturbing untargeted protein α-synuclein
- effect on endogenous PSD95 level (PSD95): significantly reduced PSD95; also recorded: effectively degraded endogenous PSD95
- effect of NH4Cl on PSD95 reduction (PSD95; 25 μM, +NH4Cl): rescued PSD95 degradation

Substance: YGRKKRRQRRRKKNRNKLRRQHSYKFERQKILDQRFFE (Knockdown peptide targeting DAPK1, with TAT protein transduction domain) [TAT-NR2B-CTS]
- effect of siRNA-mediated Lamp2a knockdown on DAPK1 knockdown (DAPK1 [1]; 25 μM peptide, NMDA, Lamp2a siRNA 60 pmol 3 days): inhibition of TAT-NR2BCTM induced knockdown of DAPK1
- effect on DAPK1 in cytosolic fraction (DAPK1 [1]; 25 μM): reduced the levels of DAPK1
- effect on DAPK1 in mitochondrial fraction (DAPK1 [1]; 25 μM): reduced the levels of DAPK1
- effect on DAPK1 in nuclear fraction (DAPK1 [1]; 25 μM): reduced the levels of DAPK1
- effect on DAPK1 in cytosolic fraction (DAPK1 [1]; 25 μM, listed as TAT-NR2BCTM): significantly decreased DAPK1
- effect on DAPK1 in mitochondrial fraction (DAPK1 [1]; 25 μM, listed as TAT-NR2BCTM): significantly decreased DAPK1
- effect on DAPK1 in nuclear fraction (DAPK1 [1]; 25 μM, listed as TAT-NR2BCTM): significantly decreased DAPK1
- effect of macroautophagy inhibitor on DAPK1 knockdown (DAPK1 [1]; NMDA, +3-MA): did not alter
- effect of lysosomal inhibitor on DAPK1 reduction (DAPK1 [1]; synthetic peptide 25 μM, NMDA, +NH4Cl 20 mM): rescued; also recorded: prevented
- effect on DAPK1 level after NMDA treatment (DAPK1 [1]; synthetic peptide 25 μM, prior to and during NMDA): significant reduction of DAPK1; also recorded: decreased native DAPK1
- level of DAPK1 in ischemic side, of that on the contralateral side (DAPK1 [4]; 1 hour following reperfusion, 60 min MCAO): 43.3%
- region specificity of DAPK1 knockdown (immunohistochemistry) (DAPK1 [4]; brain sections, listed as TAT-NR2BCTM): specific to stroke-damaged areas; also recorded: selectively reduced the level of DAPK1
- effect on DAPK1 levels in brain tissues (immunoblot) (DAPK1 [4]; ischemic vs contralateral side, listed as TAT-NR2BCTM): significant reduction in DAPK1 levels only in the ischemic side of the brain; also recorded: specific knockdown of DAPK1 only in tissues collected from the infract side

Substance: FLAG-βsyn36: expressed FLAG-tagged β-synuclein 36-45 peptide without CTS ({FLAG}-GVLYVGSKTR; UniProt Q16143 36-45, looked up, fragment) [reference compound]
- effect on α-synuclein levels (α-synuclein [2]): did not significantly affect

Substance: YGRKKRRQRRRGVLYVGSKTRKFERQKILDQRFFE (Knockdown peptide targeting alpha-synuclein, with TAT protein transduction domain) [TAT-βsyn-CTM, synthetic cell-penetrating α-synuclein targeting peptide]
- effect on endogenous α-synuclein level (α-synuclein [3]): significantly degraded native α-synuclein; also recorded: specifically decreased the targeted endogenous α-synuclein
- effect of 3-methyladenine on α-synuclein reduction (α-synuclein [3]; 25 μM, +3-MA 10 mM): not by inhibition of macroautophagy with 3-methyladenine; also recorded: significantly decreased native α-synuclein in the presence of 3-MA
- effect of NH4Cl on α-synuclein reduction (α-synuclein [3]; 25 μM, +NH4Cl 20 mM): rescued; also recorded: prevented
- effect on endogenous PSD95 level (PSD95): without affecting the non-intended target PSD95; also recorded: without affecting the level of unrelated control proteins PSD-95
